Results on five sequences are retold here after the supplement of paper PMC5998384.

The test system of series [1] is HeLa Kyoto. In words: solubility change mitosis vs G1/S (difference of NP-40 vs SDS log2 ratios) (log2 ratio difference); higher = more soluble in mitosis.
Series [2] deals with HeLa Kyoto. The series is described as follows: thermal stability score vs G1/S (z-score of summed log2 fold changes over temperatures); higher = more thermally stable than in G1/S.
The test system of series [3] is HeLa Kyoto. In words: solubility in G1/S (NP-40 vs SDS abundance) (log2 ratio); higher = more soluble. The conditions noted are these: cell cycle stage: G1/S.
In series [4] the test system is HeLa Kyoto. In words: melting temperature (median over replicates), in situ; higher = more thermally stable.
[5] abbreviates: cell cycle stage: early G1 (4.5 h after nocodazole release).
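Throughout, for melting temperature (median over replicates), in situ: HeLa Kyoto cells synchronized by double thymidine or nocodazole block, proteins quantified by TMT10plex mass spectrometry, three independent biological replicates.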
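Throughout, for solubility change mitosis vs G1/S (difference of NP-40 vs SDS log2 ratios): synchronized HeLa Kyoto cells (double thymidine block for G1/S, nocodazole release for mitosis), protein amounts in NP-40 versus SDS lysates quantified by mass spectrometry, three biological replicates.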
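Throughout, for solubility in G1/S (NP-40 vs SDS abundance): HeLa Kyoto cells arrested at G1/S by double thymidine block, proteins quantified by TMT10plex mass spectrometry in mild NP-40 versus SDS extracts, three biological replicates.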
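Throughout, for thermal stability score vs G1/S (z-score of summed log2 fold changes over temperatures): synchronized HeLa Kyoto cells, proteins quantified by TMT10plex mass spectrometry, three biological replicates, mitosis taken 0.5 h after nocodazole release, G1/S directly after double thymidine block.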

Consider “MTDGILGKAATMEIPIHGNGEARQLPEDDGLEQDLQQVMVSGPNLNETSIVSGGYGGSGDGLIPTGSGRHPSHSTTPSGPGDEVARGIAGEKFDIVKKWGINTYKCTKQLLSERFGRGSRTVDLELELQIELLRETKRKYESVLQLGRALTAHLYSLLQTQHALGDAFADLSQKSPELQEEFGYNAETQKLLCKNGETLLGAVNFFVSSINTLVTKTMEDTLMTVKQYEAARLEYDAYRTDLEELSLGPRDAGTRGRLESAQATFQAHRDKYEKLRGDVAIKLKFLEENKIKVMHKQLLLFHNAVSAYFAGNQKQLEQTLQQFNIKLRPPGAEKPSWLEEQ [ARFIP2]”, for which the “solubility change mitosis (log2)” value in the series with HeLa Kyoto [1] is 0.0365. Also, the values for the thermal stability score with HeLa Kyoto [2] (setting [5]) and in the series with HeLa Kyoto [2] (cell cycle stage: mitosis) were -0.945 and -2.87, respectively. Also, the “solubility in G1/S (log2)” value in the series with HeLa Kyoto [3] came to 0.602. Moreover, the melting temperature came out at 51.1 °C in the series with HeLa Kyoto [4] (cell cycle stage: G1/S) and 50.9 °C with HeLa Kyoto [4] (cell cycle stage: mitosis).

Consider “MTDNIPLQPVRQKKRMDSRPRAGCCEWLRCCGGGEARPRTVWLGHPEKRDQRYPRNVINNQKYNFFTFLPGVLFNQFKYFFNLYFLLLACSQFVPEMRLGALYTYWVPLGFVLAVTVIREAVEEIRCYVRDKEVNSQVYSRLTARGTVKVKSSNIQVGDLIIVEKNQRVPADMIFLRTSEKNGSCFLRTDQLDGETDWKLRLPVACTQRLPTAADLLQIRSYVYAEEPNIDIHNFVGTFTREDSDPPISESLSIENTLWAGTVVASGTVVGVVLYTGRELRSVMNTSNPRSKIGLFDLEVNCLTKILFGALVVVSLVMVALQHFAGRWYLQIIRFLLLFSNIIPISLRVNLDMGKIVYSWVIRRDSKIPGTVVRSSTIPEQLGRISYLLTDKTGTLTQNEMIFKRLHLGTVAYGLDSMDEVQSHIFSIYTQQSQDPPAQKGPTLTTKVRRTMSSRVHEAVKAIALCHNVTPVYESNGVTDQAEAEKQYEDSCRVYQASSPDEVALVQWTESVGLTLVGRDQSSMQLRTPGDQILNFTILQIFPFTYESKRMGIIVRDESTGEITFYMKGADVVMAGIVQYNDWLEEECGNMAREGLRVLVVAKKSLAEEQYQDFEARYVQAKLSVHDRSLKVATVIESLEMEMELLCLTGVEDQLQADVRPTLETLRNAGIKVWMLTGDKLETATCTAKNAHLVTRNQDIHVFRLVTNRGEAHLELNAFRRKHDCALVISGDSLEVCLKYYEYEFMELACQCPAVVCCRCAPTQKAQIVRLLQERTGKLTCAVGDGGNDVSMIQESDCGVGVEGKEGKQASLAADFSITQFKHLGRLLMVHGRNSYKRSAALSQFVIHRSLCISTMQAVFSSVFYFASVPLYQGFLIIGYSTIYTMFPVFSLVLDKDVKSEVAMLYPELYKDLLKGRPLSYKTFLIWVLISIYQGSTIMYGALLLFESEFVHIVAISFTSLILTELLMVALTIQTWHWLMTVAELLSLACYIASLVFLHEFIDVYFIATLSFLWKVSVITLVSCLPLYVLKYLRRRFSPPSYSKLTS [ATP9A]”, for which the “solubility change mitosis (log2)” value with HeLa Kyoto [1] amounted to 0.0184. In addition, the thermal stability score in the series on HeLa Kyoto [2] (setting [5]) was -4.08; in the series with HeLa Kyoto [2] (cell cycle stage: mitosis) it was -4.01. The “solubility in G1/S (log2)” value in the series with HeLa Kyoto [3] was -0.6. Moreover, the melting temperature in the series on HeLa Kyoto [4] (cell cycle stage: G1/S) worked out at 57.4 °C; in the series on HeLa Kyoto [4] (cell cycle stage: mitosis), 58.4 °C.

Turning to “MTDQAFVTLTTNDAYAKGALVLGSSLKQHRTTRRLVVLATPQVSDSMRKVLETVFDEVIMVDVLDSGDSAHLTLMKRPELGVTLTKLHCWSLTQYSKCVFMDADTLVLANIDDLFDREELSAAPDPGWPDCFNSGVFVYQPSVETYNQLLHLASEQGSFDGGDQGILNTFFSSWATTDIRKHLPFIYNLSSISIYSYLPAFKVFGASAKVVHFLGRVKPWNYTYDPKTKSVKSEAHDPNMTHPEFLILWWNIFTTNVLPLLQQFGLVKDTCSYVNVLSDLVYTLAFSCGFCRKEDVSGAISHLSLGEIPAMAQPFVSSEERKERWEQGQADYMGADSFDNIKRKLDTYLQ [GYG1]”, in the series with HeLa Kyoto [1], the “solubility change mitosis (log2)” value was -0.149. Further, the thermal stability score with HeLa Kyoto [2] (setting [5]) is -3.5; in the series on HeLa Kyoto [2] (cell cycle stage: mitosis) it was -5.58. For the same sequence, the “solubility in G1/S (log2)” value with HeLa Kyoto [3] was found to be 0.0958. The figures for the melting temperature with HeLa Kyoto [4] (cell cycle stage: G1/S) and in the series on HeLa Kyoto [4] (cell cycle stage: mitosis) were 56.3 °C and 52.1 °C, respectively.

Regarding “MTDSKYFTTNKKGEIFELKAELNNEKKEKRKEAVKKVIAAMTVGKDVSSLFPDVVNCMQTDNLELKKLVYLYLMNYAKSQPDMAIMAVNSFVKDCEDPNPLIRALAVRTMGCIRVDKITEYLCEPLRKCLKDEDPYVRKTAAVCVAKLHDINAQMVEDQGFLDSLRDLIADSNPMVVANAVAALSEISESHPNSNLLDLNPQNINKLLTALNECTEWGQIFILDCLSNYNPKDDREAQSICERVTPRLSHANSAVVLSAVKVLMKFLELLPKDSDYYNMLLKKLAPPLVTLLSGEPEVQYVALRNINLIVQKRPEILKQEIKVFFVKYNDPIYVKLEKLDIMIRLASQANIAQVLAELKEYATEVDVDFVRKAVRAIGRCAIKVEQSAERCVSTLLDLIQTKVNYVVQEAIVVIRDIFRKYPNKYESIIATLCENLDSLDEPDARAAMIWIVGEYAERIDNADELLESFLEGFHDESTQVQLTLLTAIVKLFLKKPSETQELVQQVLSLATQDSDNPDLRDRGYIYWRLLSTDPVTAKEVVLSEKPLISEETDLIEPTLLDELICHIGSLASVYHKPPNAFVEGSHGIHRKHLPIHHGSTDAGDSPVGTTTATNLEQPQVIPSQGDLLGDLLNLDLGPPVNVPQVSSMQMGAVDLLGGGLDSLVGQSFIPSSVPATFAPSPTPAVVSSGLNDLFELSTGIGMAPGGYVAPKAVWLPAVKAKGLEISGTFTHRQGHIYMEMNFTNKALQHMTDFAIQFNKNSFGVIPSTPLAIHTPLMPNQSIDVSLPLNTLGPVMKMEPLNNLQVAVKNNIDVFYFSCLIPLNVLFVEDGKMERQVFLATWKDIPNENELQFQIKECHLNADTVSSKLQNNNVYTIAKRNVEGQDMLYQSLKLTNGIWILAELRIQPGNPNYTLSLKCRAPEVSQYIYQVYDSILKN [AP2B1]”, the “solubility change mitosis (log2)” value in the series with HeLa Kyoto [1] was -0.0379. Besides, the thermal stability score in the series with HeLa Kyoto [2] (setting [5]) was -1.91; in the series with HeLa Kyoto [2] (cell cycle stage: mitosis), 3.3. Moreover, in the series on HeLa Kyoto [3], the “solubility in G1/S (log2)” value was found to be 0.198. Moreover, the results for the melting temperature in the series with HeLa Kyoto [4] (cell cycle stage: G1/S) and in the series with HeLa Kyoto [4] (cell cycle stage: mitosis) were 51.6 °C and 52 °C, respectively.

Turning to “MTDTRRRVKVYTLNEDRQWDDRGTGHVSSGYVERLKGMSLLVRAESDGSLLLESKINPNTAYQKQQDTLIVWSEAENYDLALSFQEKAGCDEIWEKICQVQGKDPSVDITQDLVDESEEERFDDMSSPGLELPSCELSRLEEIAELVASSLPSPLRREKLALALENEGYIKKLLELFHVCEDLENIEGLHHLYEIIKGIFLLNRTALFEVMFSEECIMDVIGCLEYDPALSQPRKHREFLTKTAKFKEVIPISDPELKQKIHQTYRVQYIQDMVLPTPSVFEENMLSTLHSFIFFNKVEIVGMLQEDEKFLTDLFAQLTDEATDEEKRQELVNFLKEFCAFSQTLQPQNRDAFFKTLSNMGILPALEVILGMDDTQVRSAATDIFSYLVEYNPSMVREFVMQEAQQNDDVSKKLTEQKITSKDILLINLIIEHMICDTDPELGGAVQLMGLLRTLVDPENMLATANKTEKTEFLGFFYKHCMHVLTAPLLANTTEDKPSKDDFQTAQLLALVLELLTFCVEHHTYHIKNYIINKDILRRVLVLMASKHAFLALCALRFKRKIIGLKDEFYNRYIMKSFLFEPVVKAFLNNGSRYNLMNSAIIEMFEFIRVEDIKSLTAHVIENYWKALEDVDYVQTFKGLKLRFEQQRERQDNPKLDSMRSILRNHRYRRDARTLEDEEEMWFNTDEDDMEDGEAVVSPSDKTKNDDDIMDPISKFMERKKLKESEEKEVLLKTNLSGRQSPSFKLSLSSGTKTNLTSQSSTTNLPGSPGSPGSPGSPGSPGSVPKNTSQTAAITTKGGLVGLVDYPDDDEDDDEDEDKEDTLPLSKKAKFDS [PPP4R3A]”, the “solubility change mitosis (log2)” value in the series with HeLa Kyoto [1] was -0.214. Also, the thermal stability score with HeLa Kyoto [2] (setting [5]) is -0.659; in the series with HeLa Kyoto [2] (cell cycle stage: mitosis), 0.337. The “solubility in G1/S (log2)” value in the series with HeLa Kyoto [3] was found to be 0.0151. In addition, the melting temperature in the series with HeLa Kyoto [4] (cell cycle stage: G1/S) came out at 52.9 °C; with HeLa Kyoto [4] (cell cycle stage: mitosis), 52 °C.
